The target of assay [1] is T1, Peptide-5 (human, phosphoserine 210, phosphoserine 214, phosphothreonine 217 (tau 2N4R numbering); SCBiot and dPEG4 at the N-terminus; amide at the C-terminus). Description: SPR ProteOn, peptide captured, Fab as analyte; range of n=2; Peptide-5 (pS210/pS214/pT217); upper end of n=2 range. How it is done:
(§1) The binding affinity of PT3 Fab towards each of the fourteen tau phosphopeptides shown in Table 6 was assessed by surface plasmon resonance (SPR) using a Bio-Rad ProteOn XPR36. Peptides were synthesized by standard chemical methods (New England Peptide) with short-chain biotin and a PEG4 moiety at the N-terminus. Biotinylated peptide was captured on a neutravidin-coated NLC biosensor chip and PT3 Fab was flowed over the surface to measure kinetic parameters.
(§2) All experiments were performed at 25° C. using phosphate buffered saline, pH 7.4, 0.005% Tween 20 (PBST) as both running buffer and sample dilution buffer. Prior to running samples, the NLC chip was conditioned by running PBST over the chip surface for 1 h. Approximately 5-10 RU of peptide was captured on the chip surface by diluting peptide to 10 ng/mL in PBST and injecting over the flow channels at 30 μL/min for 100 s. Serial dilutions of PT3 Fab (1.1-90 nM) were analyzed and, with the exception of Peptide-8, each concentration was measured in duplicate. After capture of peptides, the antibody titration was injected at 60 μL/min for 3 minutes (association phase), followed by 300 s of buffer only (dissociation phase).
(§3) The data were double referenced by subtraction of the interspot response and the curves generated by the buffer-only injection. […] The data were analyzed using a simple Langmuir 1:1 binding model.

For assay [2], the target named is T2, Peptide-7 (human, phosphothreonine 212, phosphoserine 214 (tau 2N4R numbering); SCBiot and dPEG4 at the N-terminus; amide at the C-terminus). Description: SPR ProteOn, peptide captured, Fab as analyte; range of n=2; lower end of n=2 range. The method, then:
as §1, §2
(§4) The data were double referenced by subtraction of the interspot response and the curves generated by the buffer-only injection. The chip surface was regenerated using a single injection of 0.85% phosphoric acid at 30 μL/min for 100 s contact time, followed by four injections of running buffer before the next antibody titration injection. The data processing and kinetic analysis were done using the instrument software. The data were analyzed using a simple Langmuir 1:1 binding model.

The target in assay [3] is T2, Peptide-7. Put plainly: SPR ProteOn, peptide captured, Fab as analyte; Peptide-7, phosphorylated at 212/214. The method, then:
as §1, §2, §3

The next assay has as its target T3, Peptide-8 (human, phosphothreonine 212 (tau 2N4R numbering); SCBiot and dPEG4 at the N-terminus; amide at the C-terminus).
T3 construct: also called pT212-tau peptide (Peptide-8)
Description: SPR ProteOn, peptide captured, Fab as analyte; n=1. How it is done:
as §1, §2, §4

A further assay addresses T4, Peptide-2 (human, phosphothreonine 212, phosphothreonine 217 (tau 2N4R numbering); short chain biotin (SCBiot) and dPEG4 at the N-terminus; amide at the C-terminus).
T4 construct: also called pT212/pT217-tau peptide (Peptide-2)
Description: SPR ProteOn, peptide captured, Fab as analyte. The method, then:
A subset of HFA-PT3 monoclonal antibody variants, selected based on biophysical characterization and ELISA binding to PHF, were analyzed by Surface Plasmon Resonance (SPR) with a ProteOn XPR36 for binding to the following phosphopeptides: pT212/pT217-tau peptide (Peptide-2, SEQ ID NO: 48) and pT212-tau peptide (Peptide-8, SEQ ID NO: 54). All experiments were performed at 25° C. using PBST, pH 7.4, (Bio-Rad Cat#176-2720) as both running buffer and sample dilution buffer.
Fab/peptide binding. Biotinylated peptide was captured on a neutravidin-coated NLC biosensor chip pre-conditioned with PBST, and Fab was flowed over the surface to measure kinetic parameters. Approximately 5-10 RU of peptide was captured on the chip surface by diluting peptide to 10 ng/mL in PBST and injecting over the flow channels at 30 μL/min for 100 s. Serial dilutions of PT3 Fab (1.1 nM to 90 nM) were injected at 60 μL/min for 3 minutes (association phase), followed by 300 s of buffer only (dissociation phase).
Data were double referenced by subtraction of the interspot response, and the curves generated by the buffer only injection. The chip surface was regenerated with 0.85% phosphoric acid, followed by PBST injection before the next antibody titration injection. Data processing and analysis were performed using instrument software. The data were fit using a simple Langmuir 1:1 binding model.

The target of assay [4] is T2, Peptide-7. Put plainly: SPR ProteOn, peptide captured, Fab as analyte; range of n=2; Peptide-7 (pT212/pS214); lower end of n=2 range. How it is done: as §1, §2, §3
The target in assay [5] is T2, Peptide-7. Put plainly: SPR ProteOn, peptide captured, Fab as analyte; range of n=2; Peptide-7 (pT212/pS214); upper end of n=2 range. The method, then:
as §1, §2, §3

For a further assay, the target named is T5, Peptide-1 (human, phosphothreonine 212, phosphoserine 214, phosphothreonine 217 (tau 2N4R numbering); short chain biotin (SCBiot) and dPEG4 at the N-terminus; amide at the C-terminus).
T5 construct: also called tau peptide phosphorylated at T212/S214/T217
T5 sequence (peptide, as listed by the source): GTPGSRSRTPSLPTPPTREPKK
Description: SPR ProteOn, peptide captured, Fab as analyte; range of n=2; Peptide-1 (pT212/pS214/pT217); lower end of n=2 range. The method, then: as §1, §2, §3

The target of another assay is Peptide-3 (human, phosphoserine 214, phosphothreonine 217 (tau 2N4R numbering); SCBiot and dPEG4 at the N-terminus; amide at the C-terminus). Put plainly: SPR ProteOn, peptide captured, Fab as analyte; Peptide-3, phosphorylated at 214/217; n=3. How it is done: as §1, §2, §3
Assay [6] deals with T1, Peptide-5. Description: SPR ProteOn, peptide captured, Fab as analyte; Peptide-5, phosphorylated at 210/214/217. How it is done:
as §1, §2, §3

The target in another assay is Peptide-6 (human, phosphothreonine 217 (tau 2N4R numbering); SCBiot and dPEG4 at the N-terminus; amide at the C-terminus). Description: SPR ProteOn, peptide captured, Fab as analyte; Peptide-6, phosphorylated at 217 only. The method, then:
as §1, §2, §3

Here are results for one molecule from patent publication US20230047413A1 (Janssen / Centocor, published 2023).

For orientation: Kd means the constant that tells how readily two partners part at equilibrium. What is called koff is a measure of how fast the partners let go of each other. A word on the kon: it is the rate constant with which the complex forms. Read a low kon as slower complex formation.

B1: PT3 Fab (B187) (Fab, V domains shown)
VH: EVKLVESGGDLVKPGGSLKLSCAASGFTFSSYAMSWVRQNPEKRLEWVASISKGGNTYYPNSVKGRFTISRDNARNILYLQMSSLRSEDTALYYCARGWGDYGWFAYWGQVTLVTVSA
VL: DIKMTQSPSSMYASLGERVTITCKASQDINRYLNWFQQKPGKSPKTLIYRANRLLDGVPSRFSGSGSGQDYSLTISSLDYEDMGIYYCLQYDEFPLTFGDGTKLELK
notes: Chimeric Fab: mouse variable regions, human IgG1/kappa constant region, 6xHis tag at the C-terminus of the heavy chain; also called mouse parental Fab of PT3
In the case of B1, the Kd is 6.6 to 10.8 nM in the assay with Peptide-5 [1]; 13.5 nM with Peptide-7 [3]; 23 nM with Peptide-8; 11.3 to 15.7 nM with Peptide-7 [4]; 11.3 to 15.7 nM with Peptide-7 [5]; 0.14 to 0.38 nM in the assay with Peptide-1. Besides, the figures for the dissociation constant (Kd) with Peptide-3, with Peptide-5 [6] and in the assay with Peptide-6 were 5.57 nM, 8.7 nM and 11.4 nM, respectively. The values for the koff with Peptide-7 [2], in the assay with Peptide-8 and with Peptide-2 were 0.00549 s⁻¹, 0.00646 s⁻¹ and 6.39e-05 s⁻¹, respectively. Further, the values for the kon with Peptide-7 [2], with Peptide-8 and with Peptide-2 were 357000 M⁻¹ s⁻¹, 281000 M⁻¹ s⁻¹ and 776000 M⁻¹ s⁻¹, respectively.
